Assay results reported in patent US20190022198A1, “Individualized Immunomodulation Therapy for Neurodegenerative Disorders, CNS Injury and Age-Related Dementia” (Yeda Research and Development Co. Ltd., priority 2012, published 2019).
Entries after “also recorded” stand apart in the source; their conditions may differ.

What was measured:
[1] = tested on: Foxp3-DTR mice; assay: Foxp3+ Treg depletion by diphtheria toxin in DEREG (Foxp3-DTR) mice; format: in vivo, mouse
[2] = tested on: cultured CP cells; assay: Immunocytochemistry of cultured CP cells treated with cytokines; format: cell-based, mouse
Experimental: For whole mount staining of the choroid plexus, isolated tissues were fixed with 2.5% paraformaldehyde (PFA) for several hours, and subsequently transferred to PBS containing 0.05% sodium azide. Prior to staining, the dissected tissues were washed and blocked (20% horse serum, 0.3% Triton X-100, and PBS) for 1 h at room temperature with shaking. Whole mount staining with primary (in PBS containing 2% horse serum and 0.3% Triton X-100) and secondary antibodies (in PBS), was performed for 1h at room temperature, with shaking. Each step was followed by three washes in PBS. The tissues were mounted onto slides, using Immu-mount (9990402, from Thermo), and sealed with cover-slips. For staining of sectioned brains, two different tissue preparation protocols (paraffin embedded and microtomed frozen sections) were applied, as previously described (Ziv Y et al (2006b)). For immunocytochemistry, CP cells were isolated as described above and were grown on PLL coated cover slips for 7 days, replacing the medium every 3 days. Cytokines were added for the last 3 days of culture. Following 7 days of culture, the wells were washed with PBS and the cells were fixed either with 2.5% paraformaldehyde for 30 min or methanol-acetone (1:1) for 10 min at −20° C., following by 2 washing steps with PBS. For CCL11 staining, cells were treated with Brefeldin-A 2 hours prior to fixation in order to arrest protein secretion. The cover slips of the cultured CP cells were incubated with the indicated antibodies and mounted with Glycerol Vinyl Alcohol (GVA) mounting solution (Invitrogen). The following primary antibodies were used: rat anti-CD3 (Abcam); rat anti-ICAM-1 (1:100; Abcam), chicken anti-vimentin (1:500, Millipore), rabbit anti-Iba1 (1:300; Wako), goat anti-IL-10 (1:20; R&D), mouse anti-MHC-II (Abcam); mouse anti-Arginase-1 (BD Biosciences); mouse anti-Cytokeratin (Covance); rat anti-CCL11 (R&D Systems); rabbit anti-ZO-1 (Invitrogen); and rabbit anti-Claudin-1 (Invitrogen). Secondary antibodies included: Cy2/Cy3-conjugated donkey anti-rat, mouse or rabbit antibody and Cy3 conjugated donkey anti-mouse, goat, rat, chicken or rabbit (1:200; all from Jackson Immuno Research). The slides were exposed to Hoechst stain (1:2000; Invitrogen) for 1 min. Two negative controls were routinely used in immunostaining procedures, staining with isotype control antibody followed by secondary antibody, and staining with secondary antibody alone. For morphological quantification, average cross-sectional area of epithelial cells was measured following Nissl staining. Cell borders (20-25 cells per picture) were marked and the area was quantified using Image-Pro Plus software in a blinded fashion.

[3] = tested on: CP epithelial cells; assay: Primary culture of choroid plexus cells treated with cytokines, mRNA by real-time qPCR; format: cell-based, mouse; settings: for gene expression levels of trafficking molecules (ICAM-1, VCAM-1, CCL5, CXCL9, CXCL10, MHC-II): cultured CP cells from WT mice; for gene expression levels of trafficking molecules (ICAM-1, VCAM-1, CCL5, CXCL9, CXCL10, MHC-II) / expression of IFN-γ-receptor (IFN-γR) mRNA: IL-6 10 ng/ml; for gene expression levels of trafficking molecules (ICAM-1, VCAM-1, CCL5, CXCL9, CXCL10, MHC-II) / expression of the chemokine CCL20: IL-17 100 ng/ml; for expression of trafficking-related genes, escalating dosing of the cytokines: escalating dosing (data not shown); for ccl11 mRNA levels (CCL11 expression): cultured CP epithelial cells from young (3 months) mice, 24 hours after addition; for expression of the chemokine CCL20 / expression of IFN-γ-receptor (IFN-γR) mRNA: CP epithelial cells; for expression of IFN-γ-receptor (IFN-γR) mRNA: TNF-α 100 ng/ml, IL-1β 100 ng/ml
Experimental: Mice were perfused from the left ventricle of the heart with PBS, and their CPs were removed under a dissecting microscope (Stemi DV4; Zeiss) in PBS into tubes containing 0.25% trypsin, and kept on ice. The tubes were shaken for 20 minutes at 37° C. and the tissue was dissociated by pipetting. The cell suspension was washed in culture medium for epithelial cells (DMEM/HAM's F12 (Invitrogen Corp)) supplemented with 10% FCS (Sigma-Aldrich), 1 mM 1-glutamine, 1 mM sodium pyruvate, 100 U/ml penicillin, […] streptomycin, 5 μg/ml Insulin, 20 μM Ara-C, 5 ng/ml sodium selenite, 10 ng/ml EGF, and cultured (˜250,000 cells/well) at 37° C., 5% CO2 in 24-well plates (Corning Incorporated) coated with poly-L-lysine (PLL; Sigma-Aldrich). After 24 hours, the medium was changed, and the cells were either left untreated, or treated with the indicated cytokines (all purchased from PeproTech): IFN-γ, IL-4, IL-10, IL-17A, GM-CSF, IL-6, IL-1β or TNF-α or their combinations for 24 h. Cell viability was quantified by Trypan blue staining after detachment of the cells with 0.25% trypsin for 10 minutes at 37° C. Neutralizing antibodies to TNF-R1 or TNF-R2 ([…], BioLegend) were added 1 h prior to the addition of TNF-α (100 ng/ml). RNA was isolated using the ZR RNA microprep kit (Zymo Research) according to the manufacturer's protocol.
Total RNA of the hippocampus was extracted with TRI reagent (MRC, Cincinnati, Ohio) and was purified from the lysates and spinal cord using the RNeasy kit (Qiagen, Hilden, Germany). Total RNA of the choroid plexus was extracted using the RNA MicroPrep kit (Zymo Research). mRNA (1 μg) was converted to cDNA using High Capacity cDNA Reverse Transcription Kit (Applied Biosystems). The expression of specific mRNAs was assayed using fluorescence based real-time quantitative PCR (qPCR). qPCR reactions were performed using Power SYBR Green PCR Master Mix (Applied Biosystems). Quantification reactions were performed in triplicates for each sample using the standard curve method. Glyceraldehyde 3-phosphate dehydrogenase (GAPDH), Peptidylprolyl isomerase A (PPIA), and hypoxanthine guanine phosphoribosyltransferase (HPRT) were chosen as reference genes according to their stability in the target tissue. The amplification cycles were 95° C. for 5 sec, 60° C. for 20 sec, and 72° C. for 15 sec. At the end of the assay, a melting curve was constructed to evaluate the specificity of the reaction. For some genes, the cDNA was pre-amplified in 14 PCR cycles with non-random PCR primers, thus increasing the sensitivity of the subsequent real-time PCR analysis (PreAmp Master Mix Kit, Applied Biosystems). For these genes, expression was determined using TaqMan Real-Time PCR, according to manufacturer's instructions (Applied Biosystems). All quantitative real-time PCR reactions were performed and analyzed using the 7500 Real-Time PCR System (Applied Biosystems). The following TaqMan probes were used: Mm02342430_g1 (ppia), Mm00446968_m1 (hprt), Mm00445260_m1 (il-4), Mm01168134_m1 (ifn-γ), Mm00441238_m1 (ccl11), Mm00475988_m1 (arg-1). In addition, the following primers were used: […]

[4] = 24 hours, IFN-γ 100 ng/ml, IL-4 10 ng/ml

diphtheria toxin [DTX]
Foxp3+ T cells in the spleen, the CP and the CSF ([1]; DTX 8 ng/g i.p. per day for 4 days, DTR+ mice): depleted
mRNA of ICAM-1, CXCL9, CXCL10, CXCL11, MCP-1, MCSF, BDNF and IGF-1 in the CP ([1]; following Foxp3+ T cells depletion by DTX): significantly upregulated

IL-4: Th2-derived cytokine, purchased from PeproTech, added to cultured CP cells
epithelial tight junctions (ZO-1 staining) ([2]; CP epithelial cell cultures in response to IL-4 (data not shown)): dysregulated
CCL11 immunoreactivity ([2]; CP epithelium, IL-4, following Brefeldin-A treatment (data not shown)): produced CCL11
Arg1 immunostaining ([2]; IL-4 (10 ng/ml) treated CP epithelial cells): higher relative to untreated cells
gene expression levels of trafficking molecules (ICAM-1, VCAM-1, CCL5, CXCL9, CXCL10, MHC-II) [3, 4]: no effect on trafficking molecules
expression of trafficking-related genes, escalating dosing of the cytokines ([3]; cultured CP cells): None of the tested cytokines, other than IFN-γ, had any effect
ccl11 mRNA levels (CCL11 expression) ([3]; IL-4 10 ng/ml, IFN-γ 100 ng/ml): expressed high levels of CCL11
arginase-1 (Arg1) expression ([3]; cultured CP epithelial cells, IL-4 10 ng/ml, 24 h): upregulated arginase-1; also recorded: dramatic effect on the upregulation of arginase-1

B1: IL-17: Th17-derived cytokine, purchased from PeproTech (protein, UniProt Q62386 26-158, looked up)
Interleukin-17A: AAIIPQSSACPNTEAKDFLQNVKVNLKVFNSLGAKVSSRRPSDYLNRSTSPWTLHRNEDPDRYPSVIWEAQCRHQRCVNAEGKLDHHMNSVLIQQEILVLKREPESCPFTFRVEKMLVGVGCTCVASIVRQAA
expression of the chemokine CCL20 ([3]; IFN-γ 100 ng/ml, 24 h): elevated the expression of the chemokine CCL20
gene expression levels of trafficking molecules (ICAM-1, VCAM-1, CCL5, CXCL9, CXCL10, MHC-II) [3, 4]: failed to activate the choroid plexus for trafficking

B2: IFN-γ: Th1-derived cytokine, purchased from PeproTech, added to cultured CP cells (protein, UniProt P01580 23-155, looked up)
Interferon gamma: HGTVIESLESLNNYFNSSGIDVEEKSLFLDIWRNWQKDGDMKILQSQIISFYLRLFEVLKDNQAISNNISVIESHLITTFFSNSKAKKDAFMSIAKFEVNNPQVQRQAFNELIRVVHQLLPESSLRKRKRSRC
ICAM-1 and VCAM-1 immunostaining on CP epithelial cells ([2]; 3 days after addition of IFN-γ (100 ng/ml)): elevated
IL-4 induced CCL11 immunoreactivity ([2]; co-incubation of IFN-γ with IL-4, following Brefeldin-A treatment (data not shown)): reversed this induction
expression of trafficking molecules (ICAM-1, VCAM-1, CCL5, CXCL10) mRNA ([3]; CP epithelial cells from 70 day old WT and mSOD1 mice, IFN-γ 100 ng/ml, 24h): elevated the expression of trafficking molecules by both WT and mSOD1 CP cultures to a similar degree
expression of the chemokine CCL20 ([3]; IFN-γ 100 ng/ml, 24 h): not
expression of trafficking molecules, IFN-γ combined with TNF-α ([3]; IFN-γ 100 ng/ml combined with TNF-α 100 ng/ml, 24 hours, most of the tested genes): strong synergistic effect
effect of IL-4 on CCL11 production ([3]; IFN-γ (100 ng/ml) added together with IL-4, young CP epithelial cells, 24 hours): reversed the effect of IL-4 on CCL11 production
gene expression levels of trafficking molecules (ICAM-1, VCAM-1, CCL5, CXCL9, CXCL10, MHC-II) [3, 4]: induced the upregulation of a wide array of trafficking molecules
expression of TNF-R1 mRNA ([3]; cultured CP cells, IFN-γ 100 ng/ml, 24 h): elevated the expression of TNF-R1
expression of chemokines CCL2, Fractalkine (CX3CL1) and M-CSF ([3]; cultured CP cells, IFN-γ 100 ng/ml, 24 hours): upregulated
expression of trafficking-related genes, escalating dosing of the cytokines ([3]; cultured CP cells): activated the CP in a dose dependent manner
basal CCL11 expression ([3]; cultured CP epithelial cells from old (22 months) mice, IFN-γ 100 ng/ml, 24 hours): decreased basal CCL11 expression
ccl11 mRNA levels (CCL11 expression) ([3]; IL-4 10 ng/ml, IFN-γ 100 ng/ml): had no effect on CCL11 expression

B3: IL-1β: pro-inflammatory cytokine, purchased from PeproTech (protein, UniProt P10749 118-269, looked up)
Interleukin-1 beta: VPIRQLHYRLRDEQQKSLVLSDPYELKALHLNGQNINQQVIFSMSFVQGEPSNDKIPVALGLKGKNLYLSCVMKDGTPTLQLESVDPKQYPKKKMEKRFVFNKIEVKSKVEFESAEFPNWYISTSQAEHKPVFLGNNSGQDIIDFTMESVSS
expression of IFN-γ-receptor (IFN-γR) mRNA ([3]; 24 h): elevated the expression of IFN-γ-receptor

B4: IL-10: Treg-derived cytokine, purchased from PeproTech (protein, UniProt P18893 19-178, looked up)
Interleukin-10: SRGQYSREDNNCTHFPVGQSHMLLELRTAFSQVKTFFQTKDQLDNILLTDSLMQDFKGYLGCQALSEMIQFYLVEVMPQAEKHGPEIKEHLNSLGEKLKTLRMRLRRCHRFLPCENKSKAVEQVKSDFNKLQDQGVYKAMNEFDIFINCIEAYMMIKMKS
expression of trafficking-related genes, escalating dosing of the cytokines ([3]; cultured CP cells): None of the tested cytokines, other than IFN-γ, had any effect

B5: IL-6: pro-inflammatory cytokine, purchased from PeproTech (protein, UniProt P08505 25-211, looked up)
Interleukin-6: FPTSQVRRGDFTEDTTPNRPVYTTSQVGGLITHVLWEIVEMRKELCNGNSDCMNNDDALAENNLKLPEIQRNDGCYQTGYNQEICLLKISSGLLEYHSYLEYMKNNLKDNKKDKARVLQRDTETLIHIFNQEVKDLHKIVLPTPISNALLTDKLESQKEWLRTKTIQFILKSLEEFLKVTLRSTRQT
expression of IFN-γ-receptor (IFN-γR) mRNA ([3]; 24 h): not
gene expression levels of trafficking molecules (ICAM-1, VCAM-1, CCL5, CXCL9, CXCL10, MHC-II) [3, 4]: neither IL-17, nor its induced cytokine IL-6, had any effect
expression of trafficking-related genes, escalating dosing of the cytokines ([3]; cultured CP cells): None of the tested cytokines, other than IFN-γ, had any effect

B6: GM-CSF: cytokine purchased from PeproTech (protein, UniProt P01587 18-141, looked up)
Granulocyte-macrophage …: APTRSPITVTRPWKHVEAIKEALNLLDDMPVTLNEEVEVVSNEFSFKKLTCVQTRLKIFEQGLRGNFTKLKGALNMTASYYQTYCPPTPETDCETQVTTYADFIDSLKTFLTDIPFECKKPGQK
expression of trafficking-related genes, escalating dosing of the cytokines ([3]; cultured CP cells): None of the tested cytokines, other than IFN-γ, had any effect
